Assay results from the DeepSol protein solubility set.

test: soluble on expression in E. coli; label from the status in PepcDB or PDB records

Sequence | soluble on expression in E. coli
MKTAEAAKGRWPEILEHFDLPPITGKNHYRGECPVCGARGKFRIDDRDGAGTWICVCGSGDGMKLVTLTQGKPFNEICTEIDRLIGNDYQRVKIPVNSSATSLRKRVLSKFSKLEALRGTSGAAYLNSRGIFNLPAEAIRFNARQRHNGCVFQSLYSLATDDKGELCYLHQTLLDGAKKADIGSSSKRLKSLQEDNYLDHARSVAIRMFPVASTLGIAEGIETALSAHQIYKVNTWATINSGFMKKFRVPAGVLHLIIFADRDENSATGLAAAYECAHANLMAKNDLQRVSVYWPDHGDFNNMLMNGDQVRELVFHKKKVAA | not soluble
MKTEEMKFINESEFKKLKHYFEQKNTTSSLVLLVALTTGGRFSEIAKLKREDLDIKNNKIHLRGTKTETSDRIISIDTVTMKRIQSFIDSRPTNISGYIFTVDGKTITNAAVNKVLRKACANLNIKEITIHSLRHSFCSILIHHGFSILYISKHLGHSNPATTQSIYSHLLQETYEREDELEHHHHHH | not soluble
MKTGDKAGAIAAAQYFVEVIEYSMHTSTTDLLEKYSYEHCDRCSHYIEVINTRQEKNVLPKSVVINSSQEGHPEFRGEGAIIWRVPMHLQISEQWEAGKEPRKEEVKVSFSVAIDNGHWVLVGVGEED | not soluble
MKTGDKQFAVIGLGRFGLAVCKELQDSGSQVLAVDINEDRVKEAAGFVSQAIVANCTHEETVAELKLDDYDMVMIAIGADVNASILATLIAKEAGVKSVWVKANDRFQARVLQKIGADHIIMPERDMGIRVARKMLDKRVLEFHPLGSGLAMTEFVVGSRLMGKTLSDLALCKVEGVQVLGFKRGPEIIKAPDMSTTLEIGDLIIVVGPQDKLANKLKSLLEHHHHHH | not soluble
MKTICVFAGSNPGGNEAYKRKAAELGVYMAEQGIGLVYGGSRVGLMGTIADAIMENGGTAIGVMPSGLFSGEVVHQNLTELIEVNGMHERKAKMSELADGFISMPGGFGTYEELFEVLCWAQIGIHQKPIGLYNVNGYFEPMMKMVKYSIQEGFSNESHLKLIHSSSRPDELIEQMQNYSYPILEKKWTEI | soluble
MKTKTDFLKMKEQGEPITMLTAYDYPSAKLAEEAEVDMILVGDSLGMVVLGYDSTVPVTVEDMIHHTKAVRRGAKETFIVTDMPFMSYHVSLQDTMVNARRIVQESGAHALKVEGAGEVISTIHYLTNAGIPVVAHLGLTPQSVGVLGGYKVQGKDAESAKKLIEDAKKCEEAGAIALVLECVPMQLAELISEQLTIPTIGIGAGQKVDGQVLVYHDLISYGVNRVPKFVKQYTSVQEEIVRGISQYVAEVKTRQFPEEKHSFTMKEEECLALYGGKQS | not soluble
MKTLGEFIVEKQHEFSHATGELTALLSAIKLGAKIIHRDINKAGLVDILGASGAENVQGEVQQKLDLFANEKLKAALKARDIVAGIASEEEDEIVVFEGCEHAKYVVLMDPLDGSSNIDVNVSVGTIFSIYRRVTPVGTPVTEEDFLQPGNKQVAAGYVVYGSSTMLVYTTGCGVHAFTYDPSLGVFCLCQERMRFPEKGKTYSINEGNYIKFPNGVKKYIKFCQEEDKSTNRPYTSRYIGSLVADFHRNLLKGGIYLYPSTASHPDGKLRLLYECNPMAFLAEQAGGKASDGKERILDIIPETLHQRRSFFVGNDHMVEDVERFIREFPDA | soluble
MKTLHLTFIAKSSKRSHFWLELVWLNNQKKILFCGAGHCKMSPHIIATVTIDDEHHHHHHRSNENYSPSSQDMDSPKPKGRILYCRKCEGHGEKVILKNHSPQCPYILCNCKSCEKLNYKRLKSFNKRNKEKIELAAALNAKRHAPESGSSVDDEEGFSRRSSFCSKTSTPDMDSETRTSSTTPITRSNSTMPTANGLEGRSGSLGHMTVMSYDIWKAKCASERKRLEEERLTKPELFTRSPSPGPMRKRAHTFVAPPTIHTPDIPVVAAKKMSLDEKVKGKFITLPTIPAMRIFVNEEDEDVKPVTQMQLAQPIALTPSPQMSLASTLAQIPMSTPVCMPSMITPTSFLDIPSTSSPMLPFQISTTTSPMLQRQTPILTPQMSPFKPVGVATPQPPALSNLSAGQELSSFILHSVVLQAQQAQQKTAQQLIPTSMPSELESTLSLLRLQQSSLGDLIKLSGIQLPTLPTTQPMLTPQMPTLPMMQKALPTVLPGSFQPFLQPTLFTNPV | not soluble
MKTRDRILECSLLLFNEQGEPNVSTLEIANELGISPGNLYYHFHGKEPLVMALFERFQAELAPLLDPPEEVRLGAEDYWLFLHLIVERLAHYRFLFQDLSNLTGRLPRLARGIRTWLGALKRTLATLLARLKADRQLRSDAPALGQLVEQITLTLLFSLDYQRVLGSKGEVRTVVYQIMMLVAPHLRSEAQRSAESLAQRYLGPE | not soluble
MKTSETTRPTLSSLPVGKRAEEGTPHNLFTVIGLDDSPSPYLSPSVKALIDQGCVFSGGVRHHDIVAPLLPAGAKWIDITVPLDQVFARYAGHPHIIVFASGDPIFFGFANTIRRRLPDAEIRLYPSFNSLQTLAHRLVMPYDDMRTISLTGRPWHGFDRALIERTPKMGILTDREHTPATIASRMLDYGYNDYTMYIGEHLGHPTKELIRRMTLEEAAAETFEYPNCLILTTGDGLQSVNGGILSPRFFGIPDEAFELLDGRARMITKAPIRLLTLSALELNRRTSFWDIGFCTGSVSIEARLQFPHLHVTSFEIRPEGKRLMEINSRRFGTPGITTVIGDFLETDTAIYPCPDAVFIGGHGGRLKEIISRVRHKLLPGARIVFNSVSEESKTHFIEAANESGLCFLGGTRVAINEYNPIEILVASAPDSPYL | not soluble
MKTSPRRPLILKRRRLPLPVQNAPSETSEEEPKRSPAQQESNQAEASKEVAESNSCKFPAGIKIINHPTMPNTQVVAIPNNANIHSIITALTAKGKESGSSGPNKFILISCGGAPTQPPGLRPQTQTSYDAKRTEVTLETLGPKPAARDVNLPRPPGALCEQKRETCADGEAAGCTINNSLSNIQWLRKMSSDGLGSRSIKQEMEEKENCHLEQRQVKVEEPSRPSASWQNSVSERPPYSYMAMIQFAINSTERKRMTLKDIYTWIEDHFPYFKHIAKPGWKNSIRHNLSLHDMFVRETSANGKVSFWTIHPSANRYLTLDQVFKQQKRPNPELRRNMTIKTELPLGARRKMKPLLPRVSSYLVPIQFPVNQSLVLQPSVKVPLPLAASLMSSELARHSKRVRIAPKVLLAEEGIAPLSSAGPGKEEKLLFGEGFSPLLPVQTIKEEEIQPGEEMPHLARPIKVESPPLEEWPSPAPSFKEESSHSWEDSSQSPTPRPKKSYSGLRSPTRCVSEMLVIQHRERRERSRSRRKQHLLPPCVDEPELLFSEGPSTSRWAAELPFPADSSDPASQLSYSQEVGGPFKTPIKETLPISSTPSKSVLPRTPESWRLTPPAKVGGLDFSPVQTPQGASDPLPDPLGLMDLSTTPLQSAPPLESPQRLLSSEPLDLISVPFGNSSPSDIDVPKPGSPEPQVSGLAANRSLTEGLVLDTMNDSLSKILLDISFPGLDEDPLGPDNINWSQFIPELQ | soluble
MKTTLIKVIAASVTALFLSMQVYASGHTAHVDEAVKHAEEAVAHGKEGHTDQLLEHAKESLTHAKAASEAGGNTHVGHGIKHLEDAIKHGEEGHVGVATKHAQEAIEHLRASEHKSH | not soluble
MKTTPIPLRRDIILDGKWCAAMLKELESLYEGDIVINGQPEHPEDYEWFYTADGDEIGIAKHRLTEQERRLLALFFTPAERRREPESEEERAWKRWMATGDPAALARLAAPYCRFIHFTASRPIANKEEFADAVRGLFSSPVAIVWEQDRRGLIVEAKQKRTTEPPSLADMAEALAADFYTALHLLIGPIRSVDERLYESFLLEKECFSAARRFWPKRTVYEWEDVIPLPLFEEGAVSEKARRTLSFLDGFDEEEVRAMETFLQCNLNVSMAAKKLYMHRNSLQYRIDKWAEQTGVDIKRFKGAAAVYLAILHRRRS | not soluble
MKTVSQLIDMKQKQTKISMVTAYDFPSAKQVEAAGIDMILVGDSLGMTVLGYESTVQVTLADMIHHGRAVRRGAPNTFVVVDMPIGAVGISMTQDLNHALKLYQETNANAIKAEGAHITPFIEKATAIGIPVVAHLGLTPQSVGVMGYKLQGATKEAAEQLILDAKNVEQAGAVALVLEAIPNDLAEEISKHLTIPVIGIGAGKGTDGQVLVYHDMLNYGVEHKAKFVKQFADFSVGVDGLKQYDQEVKSGAFPSEEYTYKKKIMNEVNNNDLEHHHHHH | soluble
MKVDGIQAEMRAMMVEATNTTPTGTGAKVGADFNDLLTKAINNVNSLQKSSGDLQTRFDRGDADVSLSDVMIARNKSSVAFEATVQIRNKLVEAYKDLMNMPV | not soluble
MKVEGRCHCGAIAYEAEVEPGTITVCHCADCQMQSGSVFRANISAPADTFVLLQGTPKEYLKIAASGARRMHAFCGNCGGPIYSCAAENPQSYSLRVGALEQRHALGRPLRQIWARRRFSWLSSLGDVEEFDGQP | not soluble
MKVFLYDTNLILASRVRSLLSSQGFEISDKEEACAGVVNLESPKGLEVVKELKEKGKKVVGYCGHKNVPLIQKAKELGVDEVIPNSQVVTSLGEILKKLCS | not soluble
MKVGVVGTGFVGSTAAFALVLRGSCSELVLVDRDEDRAQAEAEDIAHAAPVSHGTRVWHGGHSELADAQVVILTAGANQKPGESRLDLLEKNADIFRELVPQITRAAPDAVLLVTSNPVDLLTDLATQLAPGQPVIGSGTVLDSARFRHLMAQHAGVDGTHAHGYVLGEHGDSEVLAWSSAMVAGMPVADFMQAQNLPWNEQVRAKIDEGTRNAAASIIEGKRATYYGIGAALARITEAVLRDRRAVLTVSAPTPEYGVSLSLPRVVGRQGVLSTLHPKLTGDEQQKLEQSAGVLRGFKQQLGL | soluble
MKVISLKKDSFNKGGAVITLLPEDKEDLFTVYQIVDKDDELIFKKKFTSKLDEAGKKKSTDLVKLKIKVISEDFDMKDEYLKYKGVTVTDESGASNVDIPVGKYLSFTLDYVYPFTIIKQNFNKFMQKLLNEACNIEYKSDTAAVVLQEGIAHVCLVTSSSTILKQKIEYSMPKKKRTTDVLKFDEKTEKFYKAIYSAMKKDLNFDKLKTIILCSPGFYAKILMDKIFQYAEEEHNKKILDNKGMFFIAHCSTGYLQGINEVLKNPLYASKLQDTKYSKEIMVMDEFLLHLNKDDDKAWYGEKEVVKAAEYGAISYLLLTDKVLHSDNIAQREEYLKLMDSVESNGGKALVLSTLHSLGEELDQLTGIACILKYPLPDLDEDDGEE | soluble
MKVLAIDTSNYVMGVSLIEEGNVIGEIITNLTKNHSVRLMPAVEQLLKECGVKPKELTKIVVAAGPGSYTGVRIGVTAAKTLAWSLQIPIVGVSSLEVVAANGANFNGLISPLFDGRRGQIYTGLYTYEGEDLTSIEEDRIILIVDWLQMLKDKGKPVLFIGNDVKLHKETIIEHLGDQAVFAPVTKNNPRPSELAFLGLQKEEQDVHSFVPSYLRLAEAETKWLESQNK | not soluble
MKVMNIIHDSVVDGEGLRTVVFFAGCPHRCFGCHNPKSWNICNGTEMTVEEIVKEIASNPLTDVTFSGGDPFFQAAEVKKVAKAVKDLKKNLWMYTGYTLEEIQSSQNNDMIELLHYGDVLVDGRFEIGKKDLTLPFRGSSNQRIIRLKELEHHHHHH | soluble
MKVRHPFKVVVVTGVPGVGKTTVIKELQGLAEKEGVKLHIVNFGSFMLDTAVKLGLVEDRDKIRTLPLRRQLELQREAAKRIVAEASKALGGDGVLIIDTHALVKTVAGYWPGLPKHVLDELKPDMIAVVEASPEEVAARQARDTTRYRVDIGGVEGVKRLMENARAASIASAIQYASTVAIVENREGEAAKAAEELLRLIKNL | soluble
